Source: the domain aggregation screens of Martell et al. (2025)

Assay: soluble fraction after stress (log2 fold change); higher = more stays soluble; pooled small domains, quantitative proteomics
Conditions: stress: 50 degC
Outline: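 Quantitative proteomics served as the high-throughput read-out for pooled custom libraries of small protein domains. Each was stressed at 50°C. Aggregation propensity is expressed as the base-two log fold change in soluble protein after stress. A higher value means a larger share of the protein remains in solution.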
With “HMEVKVSGHLEAIGGVYHMKLSWIDDAGKRRRKSKSTGLAERGNKKRANDMLIDFMREQEAEIAASGD” the “soluble fraction (log2)” value was -1.02. In the case of “HMESIEGMYKISLLRKQGNAYVIFEDENKEAVEHIFPEKPTALELGTKVIEMFEYKERYDGLI”, the “soluble fraction (log2)” value is reported as -0.366. With “HMGEDSEPVQVPDVTGQPLWEARRTLSSMGLKVLDDGGSGSVTAQMPSAGATLRNGGQMMLYTYDEALPE” the “soluble fraction (log2)” value was 0.133. With “HMPEVYSFEVNEGAAGKRLDIFLSGEIEGLTRSFIQKLISEGMATVNQEPPRASYRVKTRDLVELQIPDPE” the “soluble fraction (log2)” value was -0.488. With “HMSKSVEQRRQQIVAWVKEHGQSQVEDLAVRFATSEVTIRKDLAALSQQGLLIRQFGGAVPVPA” the “soluble fraction (log2)” value was -0.661. In the case of “HMSDKFNALWIILNKLDKKEKVTARSLMEDLEVSERSVYRYITTLQVAGFPVDYDRAVNSYVFSDGYTLK”, the “soluble fraction (log2)” value is reported as -4.08. In the case of “HMIFTPNGDRVNDVFEIEMGVKLEFQIIILNQQNQTVFKSADPDFKWDGTMLNGEPAPSGTYLYYFSAKD”, the “soluble fraction (log2)” value is reported as 0.0847. With “HMNRIARRELMEQLFADNKITTQEQLQQLLRAEGVEVTQATISRDMRILNIVKVSDQNGNTYYKQMK” the “soluble fraction (log2)” value was -0.15. In the case of “HMKTAWDELNEVIEAYRGQESALIEVLHKAQEIMGYLPRDVQEAIAEGLHVPLNKVYGVVSFYHHFSV”, the “soluble fraction (log2)” value is reported as 0.178. In the case of “HMIMTIYEYIARNNPTGAKRVIESFGYVVTQPKKMGDNLRMLVAQEGEPALKAVVDLHPDKDLILEV”, the “soluble fraction (log2)” value is reported as -2.87. In the case of “HMTGWINVDKNWYYMNNSGSMARGMINVNNVSYYLDENGKMLSNTTVNVNGTDYRIDASGAMSQI”, the “soluble fraction (log2)” value is reported as -0.564. For “HMVLANLQAAEQGDLGIKEGEKLTILQTRPDGWWTARNANGETGLVPK”, the “soluble fraction (log2)” value was 0.173. In the case of “HMDATGDPIADRILQALQLGELTRTQVNNVFQRHLAAARISQALNFLRSLKRADMRMEETAGRSGEVWFAI”, the “soluble fraction (log2)” value is reported as -0.341. In the case of “HMKLISVAVMRASDAAEIAGGTDSKTLMYRAGLGLFQSWDWHGKIDIVTGSGNNAGDGYVLALLL”, the “soluble fraction (log2)” value is reported as -0.0519. In the case of “HMVSDAELTSQATTAITAYPGTSVEVKEGQAHLSGTFATEADKQAAIDALKKIQDVKDVHDMATV”, the “soluble fraction (log2)” value is reported as 0.123. With “HMGGLLSVIQKKAINNVKDRYSENAIKSMTKVQLHDLIKAETSRLLDPANAKETPEYQAFLEE” the “soluble fraction (log2)” value was 0.0926. For “HMENHILIIDDDLMLLKTAEEILSDQYNVSVAKSGIQALNLLNKNIIPDLILLDIDMPQMDGYETL”, the “soluble fraction (log2)” value was -0.0279. In the case of “HMPRKYFPFYFTFRETAQTMPPRLRAVFYEAIIEYGTTGKEPTLPKSIAGYWPLVKPTLDSAKAHYDAG”, the “soluble fraction (log2)” value is reported as -0.831. With “HMEEINTAPVFKNIIEIAEYAKTKFTTVEEIPKMIEFIETANSKLDNPHDEESVNELINALSTNIRKNV” the “soluble fraction (log2)” value was 0.193. For “HMNQYIFVLNEKGARITSFVDNTIPKEELIALAKQDYPNAADYIYSADGDSMLDEFMRGKLYVNGQFVAA”, the “soluble fraction (log2)” value was -0.69. With “HMRDGYEKPTEVGEGGRNPAMLSYIGHLRAKGHLSEEDIRSMAHGFNATTFDPPLDRDEVDGLVSRY” the “soluble fraction (log2)” value was 0.124. With “HMGWEPTPVLVAARDISGGTVLDQDMLRVEAIPSRLVTPSIVRSDLLASVQDAKLLLPMKQGDLLNFNMLQ” the “soluble fraction (log2)” value was -0.064. For “HMQRRHESTPIPADFDYAAVRGLSAEVQQKLERVRPLSIGQAQRIPGMTPAAISLLLVHLERQRRSRV”, the “soluble fraction (log2)” value was -0.152. With “HMTKSTLQRQKIIADLIESGNISSQNQLKGLLKKNSLLITQATLSRDLSELGAIKKRQKDGLLVYVLPK” the “soluble fraction (log2)” value was -0.511. With “HMEHLTATERHLVAYLEAHLGQVPSLSITKLSQEANVSTASIVRTMKKLGYDGFTAFKHAIKQQLR” the “soluble fraction (log2)” value was -1.77. In the case of “HMSEKLTLEAANEAAGMRIDKWLAMQLPELSRSRIEALISGGGVVVNGKNPSKSLKLKGGEQIELEIPE”, the “soluble fraction (log2)” value is reported as 0.0725. For “HMALKPKITIEELIRILNESKDLSDSETAKILNKDYTTAKYGKEFTSINVQGARYALDIATNTS”, the “soluble fraction (log2)” value was -0.135. For “HMRITTKNYFKAISEVGFENLPEVLKKSHLVIEEKTNKGNDWGIYENDAEAKKVFDLAFDKLEEFIDRKED”, the “soluble fraction (log2)” value was 0.45. With “HMNQIDDADRKRVVDEVAGQFSSMSLTEMRSDREKLLSRIIPQVQTTLNRLGLQTIDVEGIAREVIARVG” the “soluble fraction (log2)” value was 0.159. In the case of “HMIYWGTMVDKIYEVLSLAGKPLSLMEIYQQVKVFFPNSTKSSIEASMRLDARHRFKYDVEGHVYSLVD”, the “soluble fraction (log2)” value is reported as -1.3.
